The supplement of paper PMC10567573

B1: EPB41L3 (parent)
chain: SELGDYDPDECGSDYISEFRFAPN

Variants of: B1
Assay: protein stability index of a GFP-peptide fusion (GPS, HEK-293T) (PSI 1-6); higher = more stable
Settings: c terminus: a fixed tail appended
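Note: lentivirally expressed fusions sorted by FACS into six bins by GFP to DsRed ratio, PSI derived from sequencing read proportions per bin multiplied by bin number.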

Protein stability index, by site and new letter:
S1: A 1.81, C 1.88, D 2.43, E 2.29, F 1.86, G 1.99, H 1.67, I 1.71, K 2.35, L 2.02, M 2.8, N 1.81, P 1.89, Q 2.87, R 1.85, T 2.5, V 2.25, W 1.53, Y 3.03
E2: A 1.61, C 2.19, D 1.79, F 2.14, G 1.03, H 1.9, I 1.7, K 1.94, L 1.77, M 1.81, N 2.03, P 2.54, Q 1.9, R 1.85, S 1.68, T 1.56, V 2.04, W 1.77, Y 2.07
L3: A 2.05, C 2.15, D 2.66, E 1.88, F 2.36, G 2.05, H 1.74, I 2.02, K 1.74, M 2.02, N 2.22, P 2.27, Q 2.46, R 2.03, S 2.67, T 2.2, V 2.33, W 1.91, Y 1.9
G4: A 2.56, C 1.94, D 2.35, E 2.43, F 1.79, H 1.67, I 1.95, K 2.18, L 2, M 2.12, N 1.9, P 2.23, Q 2, R 2.67, S 2.19, T 2.39, V 2.06, W 1.7, Y 2.12
D5: A 1.96, C 2.06, E 1.7, F 1.68, G 2.26, H 1.79, I 1.87, K 2.17, L 1.92, M 1.71, N 1.99, P 2.35, Q 1.75, R 2.05, S 1.75, T 2.03, V 1.51, W 1.74, Y 2.09
Y6: A 2.46, C 2.27, D 2.49, E 2.37, F 2.01, G 2.48, H 1.73, I 2.06, K 2.17, L 2.19, M 1.98, N 2.15, P 2.13, Q 2.11, R 1.84, S 2.11, T 1.97, V 2.1, W 2.31
D7: A 1.91, C 1.71, E 3.01, F 2.29, G 2.29, H 2.14, I 1.65, K 1.14, L 1.56, M 1.93, N 1.68, P 2.31, Q 1.37, R 2.44, S 1.47, T 1.57, V 1.61, W 2.1, Y 1.7
P8: A 2.44, C 1.51, D 2.13, E 2.29, F 2.37, G 2.06, H 2.1, I 1.77, K 2.11, L 2.26, M 2.08, N 2.19, Q 2.03, R 2.1, S 2.29, T 1.92, V 1.9, W 1.76, Y 1.82
D9: A 1.93, C 1.92, E 2.4, F 1.95, G 2.03, H 1.92, I 1.32, K 2.05, L 1.84, M 2.01, N 1.55, P 1.41, Q 2.25, R 2.12, S 2.01
